In paper PMC4286236:
One block for each substance: values may come before it.

Key:
Test in all cases: AraTM assay
[1] = target: Danio rerio PlxnA3 TM + JM (amino acids 1241-1314) D1302Y, AraTM construct (EP-PCR mutant); conditions: E. coli membranes; four replicates; read off a plot
[2] = target: Danio rerio PlxnA3 TM + JM (amino acids 1241-1314) L1284A, AraTM construct; conditions: E. coli membranes; minimum of eleven replicates over three experiments; read off a plot
[3] = target: Danio rerio PlxnA3 TM + JM (amino acids 1241-1314) L1274A, AraTM construct; conditions: E. coli membranes; minimum of eleven replicates over three experiments; read off a plot
[4] = target: Danio rerio PlxnA3 TM + JM (amino acids 1241-1314) V1288F, AraTM construct (EP-PCR mutant); conditions: E. coli membranes; four replicates; read off a plot
[5] = target: Danio rerio PlxnA3 TM + JM (amino acids 1241-1314) M1281F, AraTM construct; conditions: E. coli membranes; minimum of eleven replicates over three experiments; read off a plot
[6] = target: Danio rerio PlxnA3 TM + JM (amino acids 1241-1314) L1277F, AraTM construct; conditions: E. coli membranes; minimum of eleven replicates over three experiments; read off a plot
[7] = target: Danio rerio PlxnA3 TM + JM (amino acids 1241-1314) M1281L, AraTM construct; conditions: E. coli membranes; minimum of eleven replicates over three experiments; read off a plot
[8] = target: Danio rerio PlxnA3 TM + JM (amino acids 1241-1314) M1281T, AraTM construct; conditions: E. coli membranes; minimum of eleven replicates over three experiments; read off a plot

- other: % change in AraTM fluorescence/absorbance from WT (% change from WT) [1]: 85
Substance: Danio rerio PlxnA3 TM + JM (amino acids 1241-1314), wild type, AraTM construct D1302Y

- other: % change in AraTM fluorescence/absorbance from WT (% change from WT) [2]: -7.6
Substance: Danio rerio PlxnA3 TM + JM (amino acids 1241-1314), wild type, AraTM construct L1284A

- other: % change in AraTM fluorescence/absorbance from WT (% change from WT) [3]: -1
Substance: Danio rerio PlxnA3 TM + JM (amino acids 1241-1314), wild type, AraTM construct L1274A

- other: % change in AraTM fluorescence/absorbance from WT (% change from WT) [4]: 25
Substance: Danio rerio PlxnA3 TM + JM (amino acids 1241-1314), wild type, AraTM construct V1288F

- other: % change in AraTM fluorescence/absorbance from WT (% change from WT) [5]: -7.2
Substance: Danio rerio PlxnA3 TM + JM (amino acids 1241-1314), wild type, AraTM construct M1281F

- other: % change in AraTM fluorescence/absorbance from WT (% change from WT) [6]: -2.3
Substance: Danio rerio PlxnA3 TM + JM (amino acids 1241-1314), wild type, AraTM construct L1277F

- other: % change in AraTM fluorescence/absorbance from WT (% change from WT) [7]: 23
Substance: Danio rerio PlxnA3 TM + JM (amino acids 1241-1314), wild type, AraTM construct M1281L

- other: % change in AraTM fluorescence/absorbance from WT (% change from WT) [8]: -12
Substance: Danio rerio PlxnA3 TM + JM (amino acids 1241-1314), wild type, AraTM construct M1281T
